Measurements taken from publication PMC4507774, “Arabidopsis seed-specific vacuolar aquaporins are involved in maintaining seed longevity under the control of ABSCISIC ACID INSENSITIVE 3”.

B1: 31RY2-mu (dsDNA)
DNA 1: ATCTACTTGGCACAGCGCTAGCCTTAGTCAACACA
DNA 2: TGTGTTGACTAAGGCTAGCGCTGTGCCAAGTAGAT
B2: 32RY-bio (TIP3;2 promoter RY) (dsDNA)
DNA 1: CTTGATCCACTTGGCACACATGCATAGATATATAGTCACAGC
DNA 2: GCTGTGACTATATATCTATGCATGTGTGCCAAGTGGATCAAG
B3: 32RY-cold (dsDNA)
DNA 1: B2 DNA 1
DNA 2: B2 DNA 2
B4: 32RY-mu (dsDNA)
DNA 1: CTTGATCCACTTGGCACAGCGTACTAGATATATAGTCACAGC
DNA 2: GCTGTGACTATATATCTAGTACGCTGTGCCAAGTGGATCAAG
B5: 31RY2-bio (TIP3;1 promoter RY2) (dsDNA)
DNA 1: ATCTACTTGGCACACATGCATGCTTAGTCAACACA
DNA 2: TGTGTTGACTAAGCATGCATGTGTGCCAAGTAGAT
B6: 31RY2-cold (dsDNA)
DNA 1: B5 DNA 1
DNA 2: B5 DNA 2

How the values were obtained:
[1] = target: T1, ABI3-B3 (partial ABI3, B3 domain) (UniProt Q01593 559-720); assay: competition; 40- or 200-fold unlabelled competitor vs 31RY2-bio; EMSA: 1x LightShift binding buffer, 2.5% glycerol, 50 ng/ul poly(dI-dC), 50 mM KCl, 0.5 mM EDTA, 20 C, 30 min; pH not stated; conditions: protein: recombinant; tags: His (pET28a, Ni-NTA); blunt
T1 sequence: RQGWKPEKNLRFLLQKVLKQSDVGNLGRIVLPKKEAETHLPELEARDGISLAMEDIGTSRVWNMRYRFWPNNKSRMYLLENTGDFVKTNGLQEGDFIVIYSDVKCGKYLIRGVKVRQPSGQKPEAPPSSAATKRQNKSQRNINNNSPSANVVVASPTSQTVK

[2] = target: T1, ABI3-B3 (partial ABI3, B3 domain); assay: EMSA; EMSA: 1x LightShift binding buffer, 2.5% glycerol, 50 ng/ul poly(dI-dC), 50 mM KCl, 0.5 mM EDTA, 20 C, 30 min; pH not stated; conditions: protein: recombinant; tags: His (pET28a, Ni-NTA); label: biotin; blunt
[3] = target: T1, ABI3-B3 (partial ABI3, B3 domain); assay: competition; 40- or 200-fold unlabelled competitor vs 32RY-bio; EMSA: 1x LightShift binding buffer, 2.5% glycerol, 50 ng/ul poly(dI-dC), 50 mM KCl, 0.5 mM EDTA, 20 C, 30 min; pH not stated; conditions: protein: recombinant; tags: His (pET28a, Ni-NTA); blunt

Row | Binder | binding result [1] | binding result [2] | binding result [3]
1 | B1 | no binding |  | 
2 | B2 |  | binds | 
3 | B3 |  |  | binds
4 | B4 |  |  | no binding
5 | B5 |  | binds | 
6 | B6 | binds |  | 
